Laboratory results as given in the DeepSol protein solubility set.

Assay: soluble on expression in E. coli; label from the status in PepcDB or PDB records

Sequence | soluble on expression in E. coli
MSSNPSSVEKKLLHYTGKAIADFNMIQRGDRVMVCLSGGKDSFTLLTILNQLRIKSGNKFEIFAFTLDQAQPGWNDACLRQWLAEKSIPHEILTRDTYSIVKEKIPEGKTYCSLCSRLRRGIIYRYAEENGFNKIALGHHRDDLVRTLMMSILYNGDIRSMPPKLLSDNKKHIVIRPLCYVQEKDIITFASEQAFPIIPCNLCGSQENLMRKKVASLIDQLAIENPKVPSNMLHALQSLKPSQLMDQNFWNFKNLEDGLETTQSIQCEEVFNAQEFELEDEKI | not soluble
MSSNYATPLDDEVFPLSFANYQFTEHVSLGEHYSLNTSEDAKYNNLNGPFVVPRDTGKFDLNTSSASDETVFSLDNPQENNYKHQAMNNVQDCRMAVAAKTTQSCDKLTDLYANAAQQNYRLWLSSF | not soluble
MSSNYIYRTAEKSDFDRILKFLAEHFYHEEPSIRASKIALEEWLPIFGEMTTSSLKLPISTVVTTEDGENIVAVLLNSMWSREEDEERMKHGNGKGDHDTSGYSEALQRFMTIVQKCHDEFWNLAPSDVNLVVYREISSVGKPWQRQGIATKMLSRNMSAARLHNVDGIVSATSSFANQTLLAKNGFQCLKEFPYSGIVSSNGDKLVETDDGSHGMRINFKRIEKSGNGPCEMEPPKSATFQNVATSVSS | soluble
MSSPRHVFYISDRTGLTAENIGEALLNQFGNLSFKRHTHPFVDTPEKARAVVEKVNRSRQENGQRPIAFVSVVDDEIRRIIKGADAFQINFFETFLGLLEKELNTEATASGQGHHSIGNTKRYDARMEAVNFSLNHDDGVSDKNLQEADVILMGVSRSGKTPTCLYLALQYGIRAANYPLIPDDLESADLPRMVKPYRDKLFGLTIQPERLQAIRQERRPNSTYAKIDTCRSEVADAQSMFRRHGIPFANTTDKSVEELAVHILQACKLKRRF | not soluble
MSSQNDYQSNGRYDNIYSQIDSEAKMSFSVDVLANIAIELQRGIGHQDRFQRLITTLRQVLECDASALLRYDSRQFIPLAIDGLAKDVLGRRFALEGHPRLEAIARAGDVVRFPADSELPDPYDGLIPGQESLKVHACVGLPLFAGQNLIGALTLDGMQPDQFDVFSDEELRLIAALAAGALSNALLIEQLESQNMLPGDATPFEAVKQTQMIGLSPGMTQLKKEIEIVAASDLNVLISGETGTGKELVAKAIHEASPRAVNPLVYLNCAALPESVAESELFGHVKGAFTGAISNRSGKFEMADNGTLFLDEIGELSLALQAKLLRVLQYGDIQRVGDDRCLRVDVRVLAATNRDLREEVLAGRFRADLFHRLSVFPLSVPPLRERGDDVILLAGYFCEQCRLRQGLSRVVLSAGARNLLQHYSFPGNVRELEHAIHRAVVLARATRSGDEVILEAQHFAFPEVTLPTPEVAAVPVVKQNLREATEAFQRETIRQALAQNHHNWAACARMLETDVANLHRLAKRLGLKD | not soluble
MSSRIEQIIEEIEEYIDKDCKFQPLSSTKIIVNKEHLDELLRELRMKTPDEIKRYQKIISNRDAILADAKAKADAMIEEAQVQTTELVSEHEIMQQAYAQANEIVTQATAQAQEIIDNATMDANEIRMGAIQYTDDLLANAESIIGHTLDSYTTKYDGLINSLQECYDVVRTNRAELESPTPEEGQEFSGEA | not soluble
MSSSRHFSIPYDEDVVHSVILENTPSPPPKPPRGILRKEAPMKPQRSALKIEPARDDDKENNSQPQARSQFKAKDTMEQMQSYFKRSISVLRKSEEHFTGAEAADILTAYIETHRNEFPRDNIGRSNAVKLLEIWLESNTIQSVESHQKKFVDSERTFYRLGGDSESLYIVNTPIASRNHDDSASVSRSESSRRSNSIKRLFSPFVRRNRSNSRGRDKDKDNLKDGSSTNLKSTWSLFSSSSEKNEKKLKKAEQQLIKEEEAEVYELSLFHLLSLIDVEFLEDVALPVQDSKNNASFLSSILGKVGLGASEERLDPHQEDHMDLLIETHPLIRDASQWFQMARCCAPLLYFEAKPVASNHKTSHNEQLYLWCRAALDAVKNRLEKMTQNGSSPLFPSEFAPLLTKIAQQLINDMDSGEKLSTAVMYIFLMVPHPIRKTIDQLVQWLQLTMRTDAVEDLRSPYYLGKKDPRRYKENVNVIIGELSSFIFPRGCMTNVQQDIFIETLVELRQKGKLGQRPAQLESSLRAKSVNGQIKWQRKERKHNSLEGDLTPVRYTVRRESIRSKTSKSKDGLNETDSALVTMINSVIDNKELSLTEKKKQLMNFKKFYPKLYNDFFPGMI | not soluble
MSSSSSSEDELEKKVTKEQKKKETKSKKRQSEAVEEEKQEVKKAKNEEEVSGRLKDSDGNEMFEIGNLRYATVSKFKGKEYVNIREYYIDRDSQKMMPSRKGISLSKAQWANLKDLIPEIDKKF | soluble
MSSTIKAIAVLKGDSPVQGVITFTQESSGGPVTVSGEIKNMDANAQRGFHVHQFGDNSNGCTSAGPHFNPTGTNHGDRTAEVRHVGDLGNVKTDASGVAKVQISDSQLSLVGPHSIIGRTIVIHAGEDDLGKTDHPESLKTGNAGARSACGVIGIAAAAALEHHHHHH | soluble
MSSTLAKIAEIEAEMARTQKNKATAHHLGLLKARLAKLRRELITPKGGGGGGPGEGFDVAKTGDARIGFVGFPSVGKSTLLSNLAGVYSEVAAYEFTTLTTVPGVIRYKGAKIQLLDLPGIIEGAKDGKGRGRQVIAVARTCNLILIVLDVLKPLGHKKIIENELEGFGIRLNSKPPNIGFKKKDKGGINLTATCPQSELDAETVKSILAEYKIHNADVTLRSDATADDLIDVVEGNRVYIPCIYVLNKIDQISIEELDIIYKVPHCVPISAHHRWNFDDLLEKIWDYLKLVRIYTKPKGQLPDYTSPVVLPYSRTTVEDFCMKIHKNLIKEFKYALVWGLSVKHNPQKVGKDHTLEDEDVIQIVKK | soluble
MSTASGITMASMSTYAILGCGSVGHAVAEELVEEGKDVLILDADEGRVEALRDQDLNAQQADICETDVAQTVADRDVVLIMSPDVNANAEAVRNIRESGGEQFIVARADDPVSADDLTELGADVVINPSAVIADSALRALETGELEYKASQLGDVIDGTEERMAILIHRSPDPDSIASAAALRAIAASRDVDADIIYEGEIGHQENRAFVNLLGIELTSNEDVNLDEYDTFALVDVAKGGEPAVESVDIVIDHYEHEHELEHDAAFSDIRPNISATSTILTKYIQELDLNLDQSVATALLYGIRAETLDFKRDTTPADLTAAAYLYPFADHDTLEQVESPSMSPETLDVLAEAIRNREVQGSHLVSNAGFIRDRDALAQAAQHLLNLEGITTTAVFAIADDTIYLAARSKDIRMNIGKVLSDAFGGMGETAGHSTDASVEIPLGIFTGLDTSDDNRDTLLELTEEAVKRKLFEAMGVDSSSSESSNGN | not soluble
MSTATRPSSSATTSVILENPVSQSQPTERLVLRLNRKKKKVSWKDGTVDNEFMQKKSSKKCCIFHKQKPFDEDDSEEEDDNNHHCDHNHEHSESGEASSSNDSKAVDMGHHHHHHSH | soluble
MSTEQPERADRLLAAAQRRGHERVEARDFGEAILAEVHCPRYLDFLKNGYAQWRALPGASQEITPHVHPPREESGYPVSIIGRAGFHIADTSSPMGPHTWEAALAASHSACTAAQLVIEGAPAAYSLSRPPGHHATRDRAGGFCFLNHTAVAAQWLRHHVARVAILDVDVHHGNGTQDIFYERDDVLHVSLHADPAYFYPFFTGYAQETGRGIGAGCNLNLPLPIGTDDEAFLAALRIACRRVLDFKPDVVVVALGLDTYEGDPLNAFRITTPGFARIGQAIAGLALPTVLVQEGGYLSDELGENLATFLDGFCQHLEHHHHHH | not soluble
MSTFKITIIGGGSSYTPELVDGLIQRIEQLPVTELALVDVEQGRQKVEIIAALTQRMLARHGLEQVKVSVHYSLDEAIRGARFVLTQFRVGQLPARAADERLGLKYNLLGQETTGIGGFAKALRTIPVMLDIAANVERLAPDAWIINFTNPAGIVTEAVSRYTKAKIIGLCNVPISMHHMIAKLLQAPYEDLQLRFAGLNHMVWVHEVLQRGKYVTADVLKMLCDGASLSMNNIKEAPWPPEFLQAMGAIPCPYHRYFYQTQDMLAEEMAAAAERGTRAEQVMQVEKELFALYADPHLDTKPEQLSFRGGSFYSEVALELIRAIHNNLGTQLVVNTTNRGAIRGLSDDSVVETNCIIDAKGAHPLTFGPLPVSMHGLTQQVKAYERLTIDAAVHGDRRSALLALVTNPLIANASIAQPLLEEVLQVNKPYLPQFSGL | not soluble
MSTFKPLKILASRRQVLKAGLAAMTLSGVASQVSAKEQPLKTSNGHSKPAAKKAGGRRIVMLDPGHGGIDTGAIGHNGSKEKHVVLAIAKNVRSILRSNGIDARLTRTGDTFIPLYDRVEIAHQHGADLFMSIHADGFTNPSAAGASVFALSNRGASSAMAKYLSDRENRADEVAGKKATDKDHLLQQVLFDLVQTDTIKNSLTLGSHILKKIKPVHKLHSRNTEQAAFVVLKSPSIPSVLVETSFITNPNEEKLLGTTAFRQKIATAIANGIISYFHWFDNQKAHSKRR | not soluble
MSTFKPLKTLTSRRQVLKAGLAALTLSGMSQAIAKDELLKTSNGHSKPKAKKSGGKRVVVLDPGHGGIDTGAIGRNGSKEKHVVLAIAKNVRSILRNHGIDARLTRSGDTFIPLYDRVEIAHKHGADLFMSIHADGFTNPKAAGASVFALSNRGASSAMAKYLSERENRADEVAGKKATDKDHLLQQVLFDLVQTDTIKNSLTLGSHILKKIKPVHKLHSRNTEQAAFVVLKSPSVPSVLVETSFITNPEEERLLGTAAFRQKIATAIAEGVISYFHWFDNQKAHSKKR | soluble
MSTHEATLQQPLLRAIDLKKHYPVKKGIFSPERLVKALDGVSFNLERGKTLAVVGESGCGKSTLGRLLTMIETPTGGELYYQGQDLLKHDPHAQKLRRQKIQIVFQNPYGSLNPRKKVGQILEEPLLINTSLSKAQRREKALAMMAKVGLKTEHYDRYPHMFSGGQRQRIAIARGLMLDPDVVIADEPVSALDVSVRAQVLNLMMDLQQDMGLSYVFISHDLSVVEHIADEVMVMYLGRCVEKGTKEQIFNNPRHPYTQALLSATPRLNPDDRRERIKLTGELPSPLNPPPGCAFNARCSRRFGPCTQLQPQLKEYDGQLVACFAVDQDENPQKPLS | not soluble
MSTHLLHALWLKNSGLHLWIEQVEGHKIVLSDAVPDNTFPDSVATLIRGKRFTHQVKTKLLTPKGREVTLQLPTIAFTPEQAVRVLSQIAAITPMMASSAQRATLAPDLMWMVRLYQGLEQFVRAGRLTIKLGYADHQWWPTWQLSSGLQERGWIAQMTAAAPGVLIANAGSSVAEDIADELPHWIANFLLQDLLDTPRSSEWHSFPEALMRSTPLRRGTAQLVSALNEWRDSMTSVSVQLVFIVEEPSKDREDRIDPADMLWPIRVRVRSGVDSPQPIMLSHYDSATKERLNALRREAILVAPILEKQGTDSNVTPTQLFELQREEGAGDWDCYVTTDQLVEFIGDAAARLKSRGFNVLLPRSWDQQETKAHLRLSDPAEASTQATIGLDKIVDYDWHMSVGDIELTEAEMVELVRSKSGLIHLRGEWVMADTAAIRRIGDYMKDVAAQSRKRKKQALDTAVMEAELAKANDDPRWPMLEARAEKLAEEFNNEFAEFGQVTLAELRELALKAQENEPIAYTGSPWHASLAGGSMGKDSPAPQRVSI | not soluble
MSTITKEWLLKTIAELEEERDATPGAVNEDAAMALAAMKLALASLEAEPVAWLLSGGGAKNNVSFDSGNAYAAQLREVTPLYTAPPAPVSVPAAMEIDDDFDSAFEHGKAVGWNAYRAAMLQAEPVSNSDELPLDYLQGHKDGLEWAAQLAEANHPQTGDWLYDDQIELARAIRKGPDMPTVQGGNSPVIPDGWVMVPVELTPDMRAAWDSAPYTDDDDNDMQAAYRAMIAVAPQWKVK | not soluble
